According to US20040072750A1, “Compounds and methods for the modulation of CD154” (priority 2001, published 2004):
“Also recorded” adds a separate entry of the source.

Legend:
[1] = tested on: platelets; test: Release of sCD154 from stimulated platelets in platelet-rich plasma (ELISA); assay type: cell-based, human; conditions: for Inhibition of sCD154 Release at >90% Platelet Aggregation Inhibition, % / Potentiation of sCD154 Release, %: TRAP-stimulated platelets, average and SD; for Inhibition of sCD154 Release at >90% Platelet Aggregation Inhibition, %: release without GP IIb-IIIa inhibitor set at 100%; for Potentiation of sCD154 Release, %: maximal potentiation, release without inhibitor set at 100%
Method: Platelet-rich plasma (PRP) was prepared from human donors by obtaining blood through a 19-gauge butterfly into PPACK anticoagulant (8.6 ml of 2.1 mM PPACK, Calbiochem, La Jolla, Calif.: final concentration 0.3 mM). Blood was aliquoted into 15 ml polypropylene tubes and centrifuged at 900 rpm for 20 minutes (160×g). The platelet rich plasma (PRP) was carefully removed and pooled in a new tube. Platelet counts were taken and recorded. Aliquots of PRP at 37° C. were then added to 1.5 ml microcentrifuge tubes containing various amounts of eptifibatide. To initiate aggregation, 20 μM ADP 4 μg/mL collagen or 5 μM TRAP6 was added and samples were rocked on a Nutator for 30 minutes at 37° C. The tubes were put on ice and immediately centrifuged at 15,000×g for 10 minutes at 4° C.
The platelet-poor plasma (PPP) supernatant was removed to new tubes and the levels of sCD154 in these samples were measured by ELISA. There was a time-dependent increase in sCD154 release when platelets were aggregated with either ADP or TRAP6.
(§1) In other experiments, various concentrations of eptifibatide, abciximab or tirofiban were added to PRP before the addition of TRAP. In the eptifibatide experiments, the release of βTG from platelet a granules was determined from PPP samples by ELISA. Inhibition of aggregation by GP IIb-IIIa antagonists was determined in PPACK-anticoagulated PRP by light-transmission aggregometry (Chrono-Log) as described in Phillips et al. (1995) J Exp. Med 182:33-40. To assess the effect of aspirin use on the release of sCD154 from platelets, PRP was obtained from 7 donors, incubated with a single concentration of GP IIb-IIIa inhibitor, and stimulated with 20 μmol/L ADP, 5 μmol/L TRAP or 4 μg/mL collagen for 30 minutes while rocking at 37° C. Resultant PPP was measured for sCD154. The same donors then took 325 mg of aspirin for 7 days. PRP was again collected and subjected to the same conditions, and the release of sCD154 was determined. A control reading (no addition of inhibitor) was taken with the agonist 0.5 mmol/L arachidonic acid in citrated PRP to ensure that the aspirin had been taken.

[2] = tested on: platelets; test: Platelet aggregation in PRP by light-transmission aggregometry; assay type: cell-based, human; conditions: before and after 7 days of aspirin
Method: as §1

[3] = tested on: platelets in whole blood; test: Perfusion chamber: thrombus formation of whole blood on protein-coated surface under shear; assay type: cell-based, human; conditions: with or without Fg
Method: The effect of CD154 on the aggregation of platelets under conditions of high shear stress were evaluated. Recombinant CD154 (rCD154 or rCD40L) was compared to fibrinogen (Fg) in its ability to form thrombi as well as in combination with Fg. Controls also included CD154 in which the KGD eptifibatide-recognition sequence was mutated to KGE (CD154(KGE) or CD40L(KGE)). Briefly, a silicone gasket with a flow path height of 127 μm was placed between a flat perfusion chamber (Glycotech, Rockville, Md.) and a protein-coated petri dish as described (Andre, P. et al., Nature Medicine, 8:247-252 (2002)). Petri dishes were coated with rCD40L, Fibrinogen (Fg), rCD40L+Fg, mutated CD40L (CD40L(KGE)), CD40L(KGE)+Fg. In one experiment, the glycoprotein IIb/IIIa antagonist eptifibatide (2 μM) was incubated with whole blood before perfusion over the rCD40L-coated surface. When Fg was coated with either rCD40L or CD40L(KGE), each molecule was deposited at 25 μg/cm^2. Coating of the proteins was performed using the spray method in which 25 μl of a 1 mg/ml protein solution is coated onto the plastic with a retouching air brush resulting in a concentration of 25 μg/cm^2 (Houdijk, WP et al., J. Clin. Invest., 75:531-540 (1985)). Human peripheral blood was collected on PPACK (40 μmol/L final concentration) and perfused for 4 minutes over the protein-coated surface. Shear rates of 1500-1600/s, 500-600/s and 100-200/s, were generated with flow rates of ˜0.6, 0.25 and 0.075 ml/min, respectively. Measurements of thrombotic deposits were performed using the Simple PCI software image analysis program (Technical Instrument, Burlingame, Calif.).

[4] = tested on: washed platelets; test: Fibrinogen binding to washed platelets and microparticle generation (flow cytometry); assay type: cell-based, human; conditions: 2 μM protein, 60 minutes at 37° C.; FIG. 10
Method: Venous blood was collected from normal donors into ACD buffer (85 mM Sodium Citrate, […] and 71 mM Citric acid) containing 0.05 μg/ml prostaglandin 12(PGI2). Blood was later centrifuged at 160×g for 20 minutes to collect platelet rich plasma (PRP). PRP was centrifuged at 1100×g for 10 minutes to sediment platelets. Platelets were washed twice with CGS buffer (13 mM trisodium citrate, 120 mM sodium chloride and 30 mM dextrose pH 7.0). The first wash had 0.03 μg/ml PGI2. Washed platelets were finally suspended in Tyrodes-Hepes buffer (12 mM sodium bi-carbonate, 138 mM sodium chloride, 5.5 mM glucose, 2.9 mM potassium chloride, 10 mM Hepes, 1 mM calcium chloride and 1 mM magnesium chloride, pH 7.4).
Washed platelets (1×10^7/ml) were incubated for 60 minutes at 37° C. with 2 μM soluble CD154 (sCD154) or mutant sCD154 (D117E mutation in the KGD sequence) in the presence or absence of eptifibatide or anti-CD40 antibody. All incubations had 100 nM Alexa-Fibrinogen (Molecular probes, Eugene, Oreg.). Samples were diluted 10 fold with stain buffer (BD Pharmingen, Los Angeles, Calif.) after incubation and analyzed by flow cytometry (FACSort, BD, San Jose, Calif.).

[5] = tested on: platelets; test: Platelet function (Accumetrics RPFA) in patients undergoing PCI; assay type: in vivo, human; conditions: 10 minutes post final bolus
Method: (§2) Patients (n=45) undergoing PCI were enrolled. The study was approved by the IRB and all patients signed informed consent. Exclusion criteria included higher risk clinical scenarios mandating, according to institutional clinical practice, the use of GP IIb/IIIa antagonists (i.e., acute ST elevation MI or non q-wave MI with CPK elevation, pain at rest with EKG changes <24 hours, visible thrombus, pain refractory to heparin), pre-procedural GP IIb/IIIa inhibitor treatment, restenotic and graft lesions, and standard conditions excluding GP IIb/IIIa inhibitor use.
(§3) All patients received aspirin and intravenous heparin (50-70U/kg) monitored by activated clotting time (ACT) during the procedure. Patients were administered either no GP IIb/IIIa inhibitor, eptifibatide (180 μg/kg double bolus followed by 2 μg/kg/min for 16 h), or abciximab (0.25 mg/kg bolus intravenously followed by 0.125 μg/kg/min for 12 h) at the discretion of the primary operator. Platelet function was monitored using PPACK-anticoagulated blood and the Accumetrics RPFA device at baseline and 10 min post-final bolus. Interventionalists were blinded to RPFA results and not permitted to modify GP IIb-IIIa inhibitor dosing. Post-PCI, patients received clopidogrel (300 mg PO) followed by 75 mg daily.

[6] = Plasma inflammatory markers after PCI (ELISA); assay type: in vivo, human
Method: as §2, §3
Venous blood samples were collected prior to (t=0) and at 30 minutes, 2 hours, and 24 hours after the angioplasty wire was advanced across the lesion. Blood was collected into 10 mL tubes with either EDTA (for sCD 154 analysis) or PPACK (for all other analyses) anticoagulant, centrifuged at 4° C., and stored at −80° C. until analysis.
Inflammatory markers in plasma samples were quantified by commercially available ELISA for sCD154 (Alexis BioChemical) with modification (12), RANTES, IL6, sICAM-1 (BioSource), and CRP (Alpha Diagnostic International).
Primary endpoint data are presented as mean±SE. Data were log transformed to achieve a normal distribution verified by Kolmogorov-Smirnov test for normality. Statistical comparisons were performed using two-way ANOVA to determine a difference in mean values over time between the 3 groups. Pair-wise comparisons were performed when the ANOVA false-positive rate was ≦5%. A Bonferroni corrective for 3 pair-wise comparisons was applied, in which the p-value of […] was used to signify a false-positive rate of 5%. For ANOVA with a false-positive rate of ≧5%, the pair-wise comparisons were reported to be statistically nonsignificant (NS). Baseline and procedural characteristics data were analyzed with standard one way ANOVA for continuous data in more than 3 groups and a student's t-test for comparison of 2 groups. A Mann-Whitney Rank Sum test was used for nominal data. Statistical significance was assumed if the false positive rate was ≦5%.

## CCCCS(=O)(=O)N[C@@H](Cc1ccc(OCCCCC2CCNCC2)cc1)C(=O)O [tirofiban]
[1]
  Inhibition of sCD154 Release at >90% Platelet Aggregation Inhibition, %: 80 ± 5.3%
  Potentiation of sCD154 Release, %: 19 ± 7.7%

## CC(=O)Oc1ccccc1C(=O)O [aspirin]
[1]; after aspirin use
  release of sCD154 from platelets stimulated with ADP or TRAP: unaffected; also recorded: does not block
[1]; aspirin, in words
  release of CD154 from platelets activated by collagen: blocks
[1]; donors took 325 mg aspirin for 7 days, collagen 4 μg/mL
  decrease in the release of sCD154 from collagen-induced platelet aggregates: 50%
[2]
  platelet aggregation in response to optimal doses of platelet agonists: no effect

B1: CD40L(KGE): CD154 in which the KGD eptifibatide-recognition sequence was mutated to KGE (D117E) (protein, UniProt P29965 113-261, looked up, variant D117E)
CD40 ligand, soluble form: MQKGEQNPQIAAHVISEASSKTTSVLQWAEKGYYTMSNNLVTLENGKQLTVKRQGLYYIYAQVTFCSNREASSQAPFIASLCLKSPGRFERILLRAANTHSSAKPCGQQSIHLGGVFELQPGASVFVNVTDPSQVSHGTGFTSFGLLKL
[3]
  aggregate formation on coated surface: does not induce
[4]
  fibrinogen binding to platelets and generation of microparticles: did not stimulate

B2: abciximab (antibody, chains of the INN, looked up, V domains shown)
VH: EVQLQQSGTVLARPGASVKMSCEASGYTFTNYWMHWVKQRPGQGLEWIGAIYPGNSDTSYIQKFKGKAKLTAVTSTTSVYMELSSLTNEDSAVYYCTLYDGYYVFAYWGQGTLVTVSA
VL: EIVLTQSPVTLSVTPGDSVSLSCRASRDISNNLHWFQQTSHESPRLLIKYASQSMSGIPSRFSGSGSGTDFTLSINSVETEDFGMYFCQQTNSWPYTFGGGTKLEIK
modifications: Fab
notes: parenteral GP IIb-IIIa antagonist
[5]
  Platelet inhibition (% inhibition): 93±4%
[1]
  Inhibition of sCD154 Release at >90% Platelet Aggregation Inhibition, %: 57 ± 8.2%
  Potentiation of sCD154 Release, %: 19 ± 7.5%
[6]; 2-24 hours after PCI, not statistically significant
  CRP levels after PCI: lowest levels
[6]; versus baseline
  plasma RANTES levels after PCI: not observed
